Molecular target: T1, full-length His-tagged SARS-CoV-2 spike protein (wild-type) (SARS-CoV-2, wild-type (Wuhan-Hu-1), UniProt P0DTC2)
T1 construct: also called full-length S-protein; full-length Spike protein; source: CHO Express cells, cell medium purified by Ni-IMAC; not shown: His-tag, C-terminal, kept
Assay: BLI
Conditions: both partners purified

B1: Nb20 nanobody (VHH)
VHH: QVQLVESGGGLVQAGGSLRLSCAVSGAGAHRVGWFRRAPGKEREFVAAIGASGGMTNYLDSVKGRFTISRDNAKNTIYLQMNSLKPQDTAVYYCAARDIETAEYIYWGQGTQVTVSS
notes: not shown: ecotin, N-terminal, cleaved; His-tag, N-terminal, cleaved
Kd: ~1 nM

Source: article PMC10045489 (Bioengineering, 2023)
